# T1: MexB (RND inner membrane transporter) (Pseudomonas aeruginosa, UniProt P52002 1-1046)
# T1 sequence: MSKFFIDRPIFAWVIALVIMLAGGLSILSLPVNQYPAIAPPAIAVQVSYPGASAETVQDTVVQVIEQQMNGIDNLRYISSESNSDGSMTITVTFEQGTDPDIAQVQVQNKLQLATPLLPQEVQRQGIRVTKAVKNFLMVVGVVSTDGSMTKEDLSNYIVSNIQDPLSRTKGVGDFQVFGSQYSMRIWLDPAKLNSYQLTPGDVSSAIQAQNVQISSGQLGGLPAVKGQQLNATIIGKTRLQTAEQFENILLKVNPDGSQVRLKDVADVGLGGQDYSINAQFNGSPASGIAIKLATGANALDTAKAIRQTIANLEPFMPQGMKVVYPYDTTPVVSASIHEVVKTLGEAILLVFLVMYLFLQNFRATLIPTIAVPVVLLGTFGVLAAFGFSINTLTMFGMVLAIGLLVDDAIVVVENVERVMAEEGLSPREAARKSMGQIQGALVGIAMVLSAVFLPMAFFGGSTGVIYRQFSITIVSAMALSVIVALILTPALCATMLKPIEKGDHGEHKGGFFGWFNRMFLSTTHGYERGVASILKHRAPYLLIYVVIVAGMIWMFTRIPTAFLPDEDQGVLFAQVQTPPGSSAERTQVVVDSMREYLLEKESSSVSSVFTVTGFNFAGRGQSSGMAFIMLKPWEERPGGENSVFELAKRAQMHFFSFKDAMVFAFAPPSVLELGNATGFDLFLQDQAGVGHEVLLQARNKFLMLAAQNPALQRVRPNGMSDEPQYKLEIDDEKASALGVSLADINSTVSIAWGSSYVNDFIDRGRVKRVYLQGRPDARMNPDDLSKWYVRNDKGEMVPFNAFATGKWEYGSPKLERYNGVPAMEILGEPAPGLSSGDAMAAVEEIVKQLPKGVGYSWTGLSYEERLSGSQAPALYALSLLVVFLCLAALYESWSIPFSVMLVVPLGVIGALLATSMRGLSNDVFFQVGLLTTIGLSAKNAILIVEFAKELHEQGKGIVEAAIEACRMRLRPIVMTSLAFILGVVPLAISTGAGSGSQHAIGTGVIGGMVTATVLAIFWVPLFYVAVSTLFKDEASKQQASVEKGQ
# Target: T1, MexB (RND inner membrane transporter)
# Experiment: BLI
binder,measurement,value
MexA wild type (periplasmic adaptor protein of MexA-MexB-OprM) (natural protein) CGKSEAPPPAQTPEVGIVTLEAQTVTLNTELPGRTNAFRIAEVRPQVNGIILKRLFKEGSDVKAGQQLYQIDPATYEADYQSAQANLASTQEQAQRYKLLVADQAVSKQQYADANAAYLQSKAAVEQARINLRYTKVLSPISGRIGRSAVTEGALVTNGQANAMATVQQLDPIYVDVTQPSTALLRLRRELASGQLERAGDNAAKVSLKLEDGSQYPLEGRLEFSEVSVDEGTGSVTIRAVFPNPNNELLPGMFVHAQLQEGVKQKAILAPQQGVTRDLKGQATALVVNAQNKVELRVIKADRVIGDKWLVTEGLNAGDKIITEGLQFVQPGVEVKTVPAKNVASAQKADAAPAKTDSKG,Kd,23 µM
same,koff,0.0055 s⁻¹

# From paper PMC8868134 (Antibiotics, 2022)
